Assay results as given in patent US20260008815A1, “CYCLIC PEPTIDE OR SALT THEREOF, AND USES THEREOF” (FUJIFILM Corporation, priority 2023, published 2026).
Bridge positions count the residues as written; N and C are the ends. Ends that are not written are not given here. COCH2 = acetyl group that carries the bridge

Each binder was assayed against T1, Recombinant Human FGFR2 alpha (IIIc) Fc Chimera Protein, CF (R&D systems, 712-FR-050) (human, UniProt P21802 22-377) (assay: ELISA on plate-bound FGFR2-Fc).
T1 construct: bought; not shown: Fc part of the chimera
T1 sequence (P21802 22-377, change not shown): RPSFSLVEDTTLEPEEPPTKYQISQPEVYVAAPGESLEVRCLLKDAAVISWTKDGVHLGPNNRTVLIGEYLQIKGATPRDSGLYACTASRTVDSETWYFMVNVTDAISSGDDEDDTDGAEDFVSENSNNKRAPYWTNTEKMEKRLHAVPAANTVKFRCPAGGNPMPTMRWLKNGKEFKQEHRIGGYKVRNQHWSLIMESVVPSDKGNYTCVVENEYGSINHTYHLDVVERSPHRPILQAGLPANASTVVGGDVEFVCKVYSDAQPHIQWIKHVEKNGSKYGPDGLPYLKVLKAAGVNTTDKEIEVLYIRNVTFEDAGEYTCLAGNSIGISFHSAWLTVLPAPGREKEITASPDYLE
Method: First, 5 ng of Recombinant Human FGFR2 alpha (IIIc) Fc Chimera Protein (R&D systems, 712-FR-050) was immobilized in each well of a 96-well plate, and blocked with Pierce Protein-Free (PBS) Blocking Buffer (Thermo, 37572), and a peptide diluted with Can Get Signal Immunoreaction Enhancer Solution I (TOYOBO, NKB-101) was then added and reacted at room temperature for 3 hours. After washing with 0.05% Tween 20-containing phosphate buffered saline (PBS), an anti-Myc antibody (Cell Signaling, 14038S) diluted with Can Get Signal Immunoreaction Enhancer Solution II (TOYOBO, NKB-101) was added and reacted at room temperature for 2 hours. After washing with 0.05% Tween 20-containing PBS, SuperSignal ELISA Femto Substrate (Thermo, 37075) was added, and the luminescence amount was measured. The dose-response relationship was calculated from using the difference between the luminescence amount in the well in which FGFR was immobilized and the luminescence amount in the well in which FGFR was not immobilized, and the concentration of the peptide at the time of reaction, and the binding affinity to FGFR was evaluated according to the following evaluation criteria. The evaluation result preferably satisfies the evaluation criteria A, B, or C.
YCEENYLTPEQYQYFIYFK(COCH2)Y (thioether 2-19 (inferred)) [cyclic peptide SEQ ID NO: 217] was tested, and the “ELISA luminescence signal at 10 nmol/L peptide, relative to SEQ ID NO: 47 (=1)” value was no less than 0.7 ratio. With YCEENYLEPEQYQYFIYFK(COCH2)Y (thioether 2-19 (inferred)) [cyclic peptide SEQ ID NO: 218] the “ELISA luminescence signal at 10 nmol/L peptide, relative to SEQ ID NO: 47 (=1)” value was no less than 0.7 ratio. YCEENYLRPEQYQYFIYFK(COCH2)Y (thioether 2-19 (inferred)) [cyclic peptide SEQ ID NO: 219] was tested, and the “ELISA luminescence signal at 10 nmol/L peptide, relative to SEQ ID NO: 47 (=1)” value was 0.1 to 0.5 ratio. With YCEENYLHPEQYQYFIYFK(COCH2)Y (thioether 2-19 (inferred)) [cyclic peptide SEQ ID NO: 220] the “ELISA luminescence signal at 10 nmol/L peptide, relative to SEQ ID NO: 47 (=1)” value was no less than 0.7 ratio. YCEENYLDGEQYQYFIYFK(COCH2)Y (thioether 2-19 (inferred)) [cyclic peptide SEQ ID NO: 221] was tested, and the “ELISA luminescence signal at 10 nmol/L peptide, relative to SEQ ID NO: 47 (=1)” value was no less than 0.7 ratio. In the case of YCEENYLDLEQYQYFIYFK(COCH2)Y (thioether 2-19 (inferred)) [cyclic peptide SEQ ID NO: 222], the “ELISA luminescence signal at 10 nmol/L peptide, relative to SEQ ID NO: 47 (=1)” value is reported as no less than 0.7 ratio. YCEENYLDIEQYQYFIYFK(COCH2)Y (thioether 2-19 (inferred)) [cyclic peptide SEQ ID NO: 223] was tested, and the “ELISA luminescence signal at 10 nmol/L peptide, relative to SEQ ID NO: 47 (=1)” value was no less than 0.7 ratio. In the case of YCEENYLDVEQYQYFIYFK(COCH2)Y (thioether 2-19 (inferred)) [cyclic peptide SEQ ID NO: 224], the “ELISA luminescence signal at 10 nmol/L peptide, relative to SEQ ID NO: 47 (=1)” value is reported as no less than 0.7 ratio. YCEENYLDFEQYQYFIYFK(COCH2)Y (thioether 2-19 (inferred)) [cyclic peptide SEQ ID NO: 225] was tested, and the “ELISA luminescence signal at 10 nmol/L peptide, relative to SEQ ID NO: 47 (=1)” value was no less than 0.7 ratio. With YCEENYLDYEQYQYFIYFK(COCH2)Y (thioether 2-19 (inferred)) [cyclic peptide SEQ ID NO: 226] the “ELISA luminescence signal at 10 nmol/L peptide, relative to SEQ ID NO: 47 (=1)” value was no less than 0.7 ratio. In the case of YCEENYLDWEQYQYFIYFK(COCH2)Y (thioether 2-19 (inferred)) [cyclic peptide SEQ ID NO: 227], the “ELISA luminescence signal at 10 nmol/L peptide, relative to SEQ ID NO: 47 (=1)” value is reported as no less than 0.7 ratio. For YCEENYLDNEQYQYFIYFK(COCH2)Y (thioether 2-19 (inferred)) [cyclic peptide SEQ ID NO: 228], the “ELISA luminescence signal at 10 nmol/L peptide, relative to SEQ ID NO: 47 (=1)” value was no less than 0.7 ratio. With YCEENYLDQEQYQYFIYFK(COCH2)Y (thioether 2-19 (inferred)) [cyclic peptide SEQ ID NO: 229] the “ELISA luminescence signal at 10 nmol/L peptide, relative to SEQ ID NO: 47 (=1)” value was no less than 0.7 ratio. For YCEENYLDSEQYQYFIYFK(COCH2)Y (thioether 2-19 (inferred)) [cyclic peptide SEQ ID NO: 230], the “ELISA luminescence signal at 10 nmol/L peptide, relative to SEQ ID NO: 47 (=1)” value was no less than 0.7 ratio. With YCEENYLDTEQYQYFIYFK(COCH2)Y (thioether 2-19 (inferred)) [cyclic peptide SEQ ID NO: 231] the “ELISA luminescence signal at 10 nmol/L peptide, relative to SEQ ID NO: 47 (=1)” value was no less than 0.7 ratio. For YCEENYLDDEQYQYFIYFK(COCH2)Y (thioether 2-19 (inferred)) [cyclic peptide SEQ ID NO: 232], the “ELISA luminescence signal at 10 nmol/L peptide, relative to SEQ ID NO: 47 (=1)” value was no less than 0.7 ratio. With YCEENYLDEEQYQYFIYFK(COCH2)Y (thioether 2-19 (inferred)) [cyclic peptide SEQ ID NO: 233] the “ELISA luminescence signal at 10 nmol/L peptide, relative to SEQ ID NO: 47 (=1)” value was no less than 0.7 ratio. YCEENYLDREQYQYFIYFK(COCH2)Y (thioether 2-19 (inferred)) [cyclic peptide SEQ ID NO: 234] was tested, and the “ELISA luminescence signal at 10 nmol/L peptide, relative to SEQ ID NO: 47 (=1)” value was no less than 0.7 ratio. In the case of YCEENYLDHEQYQYFIYFK(COCH2)Y (thioether 2-19 (inferred)) [cyclic peptide SEQ ID NO: 235], the “ELISA luminescence signal at 10 nmol/L peptide, relative to SEQ ID NO: 47 (=1)” value is reported as no less than 0.7 ratio. YCEENYLDPGQYQYFIYFK(COCH2)Y (thioether 2-19 (inferred)) [cyclic peptide SEQ ID NO: 236] was tested, and the “ELISA luminescence signal at 10 nmol/L peptide, relative to SEQ ID NO: 47 (=1)” value was 0.1 to 0.5 ratio. With YCEENYLDPPQYQYFIYFK(COCH2)Y (thioether 2-19 (inferred)) [cyclic peptide SEQ ID NO: 237] the “ELISA luminescence signal at 10 nmol/L peptide, relative to SEQ ID NO: 47 (=1)” value was no less than 0.7 ratio. YCEENYLDPLQYQYFIYFK(COCH2)Y (thioether 2-19 (inferred)) [cyclic peptide SEQ ID NO: 238] was tested, and the “ELISA luminescence signal at 10 nmol/L peptide, relative to SEQ ID NO: 47 (=1)” value was no less than 0.7 ratio. In the case of YCEENYLDPIQYQYFIYFK(COCH2)Y (thioether 2-19 (inferred)) [cyclic peptide SEQ ID NO: 239], the “ELISA luminescence signal at 10 nmol/L peptide, relative to SEQ ID NO: 47 (=1)” value is reported as no less than 0.7 ratio. YCEENYLDPVQYQYFIYFK(COCH2)Y (thioether 2-19 (inferred)) [cyclic peptide SEQ ID NO: 240] was tested, and the “ELISA luminescence signal at 10 nmol/L peptide, relative to SEQ ID NO: 47 (=1)” value was no less than 0.7 ratio. With YCEENYLDPFQYQYFIYFK(COCH2)Y (thioether 2-19 (inferred)) [cyclic peptide SEQ ID NO: 241] the “ELISA luminescence signal at 10 nmol/L peptide, relative to SEQ ID NO: 47 (=1)” value was no less than 0.7 ratio. For YCEENYLDPYQYQYFIYFK(COCH2)Y (thioether 2-19 (inferred)) [cyclic peptide SEQ ID NO: 242], the “ELISA luminescence signal at 10 nmol/L peptide, relative to SEQ ID NO: 47 (=1)” value was no less than 0.7 ratio. In the case of YCEENYLDPWQYQYFIYFK(COCH2)Y (thioether 2-19 (inferred)) [cyclic peptide SEQ ID NO: 243], the “ELISA luminescence signal at 10 nmol/L peptide, relative to SEQ ID NO: 47 (=1)” value is reported as no less than 0.7 ratio. For YCEENYLDPNQYQYFIYFK(COCH2)Y (thioether 2-19 (inferred)) [cyclic peptide SEQ ID NO: 244], the “ELISA luminescence signal at 10 nmol/L peptide, relative to SEQ ID NO: 47 (=1)” value was no less than 0.7 ratio. For YCEENYLDPQQYQYFIYFK(COCH2)Y (thioether 2-19 (inferred)) [cyclic peptide SEQ ID NO: 245], the “ELISA luminescence signal at 10 nmol/L peptide, relative to SEQ ID NO: 47 (=1)” value was no less than 0.7 ratio. With YCEENYLDPSQYQYFIYFK(COCH2)Y (thioether 2-19 (inferred)) [cyclic peptide SEQ ID NO: 246] the “ELISA luminescence signal at 10 nmol/L peptide, relative to SEQ ID NO: 47 (=1)” value was no less than 0.7 ratio. YCEENYLDPTQYQYFIYFK(COCH2)Y (thioether 2-19 (inferred)) [cyclic peptide SEQ ID NO: 247] was tested, and the “ELISA luminescence signal at 10 nmol/L peptide, relative to SEQ ID NO: 47 (=1)” value was no less than 0.7 ratio. YCEENYLDPDQYQYFIYFK(COCH2)Y (thioether 2-19 (inferred)) [cyclic peptide SEQ ID NO: 248] was tested, and the “ELISA luminescence signal at 10 nmol/L peptide, relative to SEQ ID NO: 47 (=1)” value was no less than 0.7 ratio. YCEENYLDPRQYQYFIYFK(COCH2)Y (thioether 2-19 (inferred)) [cyclic peptide SEQ ID NO: 249] was tested, and the “ELISA luminescence signal at 10 nmol/L peptide, relative to SEQ ID NO: 47 (=1)” value was no less than 0.7 ratio.
